The results in this text go back to patent US20260152729A1, “NOVEL NKR VARIANTS FOR INCREASED PRODUCTION OF ISOBUTANOL” (Gevo, Inc., priority 2020, published 2026).

Where a chain is given by its changes, count along the chain named. Names may count otherwise.

Data set [1] relates to Isobutanol Production. Briefly: Simple shake flask fermentation, final relative isobutanol concentration. The following applies: enzyme on vector; for Isobutanol Concentration relative to Se1_NKR control (WT): final concentration. It is filed as cell-based. From the text:
This improvement in isobutanol production is expected to increase with multiple copies of the Se1_NKR_v1 variant enzyme incorporated into the host cell genome.

The nature of data set [2]: KARI enzyme Ki assay (product inhibition) with NADH, purified enzymes. It is filed as biochemical, Slackia exigua. The following applies: for catalytic efficiency using KM apparent = KM*(1+[product]/Ki), compared to Se1_NKR: 1 mM DHIV; for IC50 / Ki: 1 mM 2-acetolactate, 0-40 mM R-DHIV; for catalytic efficiency (KM apparent) versus increasing concentrations of DHIV (FIG. 14A-B): both conditions (33° C., pH 6.8 and 30° C., pH 7.0). As for the experimental part:
(§1) In this example, three different KARI Gen6 variant enzymes (v1, v48, and v65) and parent enzyme Se1_NKR_gen 6 were screened for their activity with NADH as cofactor. The enzymes were expressed E. coli, and resulting transformants were cultivated in shake flask fermentations as described below and samples were taken after 44h, centrifuged at 4000×g for 10 mins at 4° C. and the cell pellets were stored at −80° C. until analysis. The pellets were lysed by bead beating and the lysates were analyzed by KARI activity assay as described below using NADH and NADPH as cofactors.
(§2) KARI Enzyme Assay: The assay and no substrate control reactions were performed in triplicate for each sample. For the KM assay, the reaction samples comprised 100 mM potassium phosphate, pH 6.8 or 7, 10 mM MgCl2, 1 mM DTT, 200 μM NADH, 0-10 mM 2-acetolactate, and 0.1 mg/mL of enzyme. For the Ki assay, the reaction samples comprised 100 mM potassium phosphate, pH 6.8 or 7, 10 mM MgCl2, 1 mM DTT, 200 μM NADH, 1 mM 2-acetolactate, 0-40 mM R-DHIV, and 0.1 mg/mL of enzyme. For the no substrate controls, the 2-acetolactate was substituted with water. 10 μL of each lysate were transferred into a 96 well half area assay plate. The reaction was started with 90 μL of reaction buffer to each well using a multichannel pipette. The samples were mixed immediately. The samples were read at 340 nm every 10 seconds for 5 minutes.
(§3) The purified enzymes encoded by Se1_NKR_Gen6 (Se1), Se1_NKR_v1 (v1), Se1_NKR_v48 (v48), and Se1_NKR_v65 (v65) under two conditions: 33° C. at pH 6.8 and 30° C. at pH 7 were characterized.
In order to determine the impact of all three parameters (kcat, KM, and Ki) to more closely determine the impact of the new variants in vivo, the catalytic efficiency for each enzyme using the KM apparent, which is equal to KM*(1+[product]/Ki), was calculated. […] At this DHIV concentration level, in vivo, at 33° C., pH 6.8, m48 would be 157%, Se1_NKR_v1 would be 139%, and Se1_NKR_v65 would be 118% improved compared to Se1_NKR. For example, in vivo, cells expressing Se1_NKR-v48, it would be expected that 16 fewer copies of the enzyme could potentially achieve 36% less protein while achieving 0.35 g/g yeast efficiency.

Data set [3] is described as follows: KARI enzyme KM assay with NADH, purified enzymes. The note with it: for Vmax: 0.1 mg/mL of enzyme. It is filed as biochemical, Slackia exigua. How it is done:
as §1, §2, §3

A short description of data set [4]: DHIV inhibition constant of Se1_NKR and Se2_NKR, as set in the model. It is filed as biochemical. The following applies: parameter set in the model; read-out: KiDHIV. From the text:
(§4) Where nNKR is the number of copies of NKR integrated into the yeast genome, kcatis the first order rate constant, AL is the cytosolic concentration of acetolactate, Km is the Michaelis constant for acetolactate, DHIV is the concentration of DHIV, and KiDHIV is the inhibition constant for DHIV. […] This also assumes that all copies of NKR are expressed equally regardless of promotor or where it is integrated in the genome.

Data set [5] in a line: Kinetic parameters of Se1_NKR and Se2_NKR for acetolactate, as set in the model. It is filed as biochemical. The note with it: parameter set in the model.
Excerpt: as §4

B1: V1: Se1_NKR Gen6 variant with mutations M77I, V91I, K290A, Q330N as printed in Table 5; e.g. SEQ ID NO: 90 (protein, listed as Slackia exigua)
chain: MSVKTKEKEMAVTILYEQDVDPKVIQGLKVGIIGYGSQGHAHALNLMDSGVDVRVGLREGDSDWKTAEEAGLKVTDIDTAAEEADVIMVLIPDEVQPKVYQEHIAAHLKAGNTLAFAHGFNIHYGYIVPPEDVNVIMCAPKGPGHIVRRQFTEGSGVPDLACVQQDATGNAWDIVLSYCWGVGGARSGIIKATFAEETEEDLFGEQAVLCGGLVELVKAGFETLTEAGYPPELAYFECYHEMKMIVDLMYESGIHFMNYSISNTAEYGEYYAGPKVINEQSREAMKEILARIQDGSFAQEFVDDCNNGHKRLLEQREAINTHPIETTGARIRSMFSWIKKEDLEHHHHHH
modifications: SITE 1..350 Se1_NKR_v1 protein
On to B1, for which, in data set [1], the “isobutanol concentration compared with the WT enzyme, in words” value was “significantly more isobutanol than the WT enzyme” and the “Isobutanol Concentration relative to Se1_NKR control (WT)” value is listed as 105%. In addition, in data set [2] (33° C., pH 6.8), the “catalytic efficiency using KM apparent = KM*(1+[product]/Ki), compared to Se1_NKR” value stood at 139%; the IC50 stood at 2880 µM; the Ki amounted to 834 µM. In data set [2] (30° C., pH 7), the IC50 turned out to be 2300 µM and the Ki was 832 µM. For the same molecule, the “catalytic efficiency (KM apparent) versus increasing concentrations of DHIV (FIG. 14A-B)” value in data set [2] is listed as “decreasing catalytic efficiencies”. In addition, in data set [3] (30° C., pH 7), the Kcat was found to be 555 s⁻¹, the Michaelis-Menten constant (Km) amounted to 566 µM and the maximal velocity (Vmax) is 1.63 mM/s. In data set [3] (33° C., pH 6.8), the Kcat came to 491 s⁻¹, the Km amounted to 407 µM and the Vmax amounted to 1.45 mM/s. Also, the “KM for acetolactate, comparison of the variants” value in data set [3] (generally, under the two conditions) is reported as “best (lowest)”.

B2: V65: Se1_NKR Gen6 variant with mutations G31A, V91I, Q330N as printed in Table 5; e.g. SEQ ID NO: 94 (protein, listed as Slackia exigua)
chain: B1 chain with G31A, I77M, A290K
modifications: SITE 1..350 Se1_NKR_v65 protein
As to B2, in data set [1], the “Isobutanol Concentration relative to Se1_NKR control (WT)” value worked out at 103%. In addition, in data set [2] (33° C., pH 6.8), the “catalytic efficiency using KM apparent = KM*(1+[product]/Ki), compared to Se1_NKR” value was found to be 118%; half-maximal inhibition (IC50) was put at 2370 µM; the Ki worked out at 801 µM. In data set [2] (30° C., pH 7), half-maximal inhibition (IC50) was put at 2040 µM and the Ki amounted to 821 µM. Also, in data set [2], the “catalytic efficiency (KM apparent) versus increasing concentrations of DHIV (FIG. 14A-B)” value is reported as “decreasing catalytic efficiencies”. Moreover, in data set [3] (30° C., pH 7), the Kcat is 602 s⁻¹, the Michaelis constant (Km) was 673 µM and the Vmax turned out to be 1.77 mM/s. Also, in data set [3] (33° C., pH 6.8), the Kcat came to 538 s⁻¹, the Km was 510 µM and the maximal velocity (Vmax) came out at 1.58 mM/s.

B3: Se1_NKR: NADH-dependent ketol-acid reductoisomerase from Slackia exigua (S. exigua KARI, SEQ ID NO: 2); parent enzyme of the variants (protein, listed as Slackia exigua)
chain: MSVKTKEKEMAVTILYEQDVDPKVIQGLKVGIIGYGSQGHAHALNLMDSGVDVRVGLREGSSSWKTAEEAGLKVTDMDTAAEEADVIMVLVPDEIQPKVYQEHIAAHLKAGNTLAFAHGFNIHYGYIVPPEDVNVIMCAPKGPGHIVRRQFTEGSGVPDLACVQQDATGNAWDIVLSYCWGVGGARSGIIKATFAEETEEDLFGEQAVLCGGLVELVKAGFETLTEAGYPPELAYFECYHEMKMIVDLMYESGIHFMNYSISNTAEYGEYYAGPKVINEQSREAMKEILKRIQDGSFAQEFVDDCNNGHKRLLEQREAINTHPIETTGAQIRSMFSWIKKED
In the case of B3, in data set [1], the “Isobutanol Concentration relative to Se1_NKR control (WT)” value was 100%. In addition, the IC50 stood at 1810 µM in data set [2] (30° C., pH 7) and 2600 µM in data set [2] (33° C., pH 6.8). Also, the Ki in data set [2] (30° C., pH 7) turned out to be 752 µM; in data set [2] (33° C., pH 6.8), 768 µM; in data set [4] it was 1100 µM. Also, the Kcat was found to be 2.6 s⁻¹ in data set [5]; 442 s⁻¹ in data set [3] (30° C., pH 7); 382 s⁻¹ in data set [3] (33° C., pH 6.8). Besides, the Km in data set [5] stood at 430 µM; in data set [3] (30° C., pH 7), 711 µM; in data set [3] (33° C., pH 6.8) it was 419 µM. For the same molecule, the Vmax is 1.30 mM/s in data set [3] (30° C., pH 7) and 1.12 mM/s in data set [3] (33° C., pH 6.8).
